Source: PMC11926106
Several values for one entry are separate records, joined by “and”; a condition that tells them apart may be missing. Identical values can stand only once.

How the values were obtained:
glycinin (soybean) [1] = assay: mass photometry; label-free glycinin 0.48 µg/mL adsorbed on a supported lipid bilayer of DOPC, 365 mM NaCl, 5 min incubation; oligomers counted among the membrane-adsorbed particles
glycinin (soybean) [2] = assay: mass photometry; label-free glycinin 0.48 µg/mL adsorbed on a supported lipid bilayer of DOPC, 20 mM NaCl, 5 min incubation; oligomers counted among the membrane-adsorbed particles

Sequence of glycinin (P04776 20-495): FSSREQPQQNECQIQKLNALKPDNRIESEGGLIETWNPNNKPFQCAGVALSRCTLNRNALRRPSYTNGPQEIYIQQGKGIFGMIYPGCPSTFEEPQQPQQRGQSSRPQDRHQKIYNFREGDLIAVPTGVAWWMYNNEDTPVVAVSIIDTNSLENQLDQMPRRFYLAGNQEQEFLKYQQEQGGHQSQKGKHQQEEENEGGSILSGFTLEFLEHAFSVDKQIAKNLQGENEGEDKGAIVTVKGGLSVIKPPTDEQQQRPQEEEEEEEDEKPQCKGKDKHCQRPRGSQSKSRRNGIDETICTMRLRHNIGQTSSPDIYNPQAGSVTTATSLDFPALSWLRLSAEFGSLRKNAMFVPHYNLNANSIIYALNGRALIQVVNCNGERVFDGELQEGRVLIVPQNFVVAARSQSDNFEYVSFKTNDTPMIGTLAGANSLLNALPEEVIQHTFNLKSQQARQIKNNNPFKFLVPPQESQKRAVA

Substance: glycinin (natural protein)
- stoichiometry N (glycinin (soybean) [1]): 9
- stoichiometry N (glycinin (soybean) [2]): 3 and 6
